# Data reported in patent publication US20240190985A1 (published 2024).
# T1: CD99 endogenously expressed on cells (Jurkat, KOPT-K1) (UniProt P14209 23-185, O-linked glycosylation (natural, on cells))
# T1 chain: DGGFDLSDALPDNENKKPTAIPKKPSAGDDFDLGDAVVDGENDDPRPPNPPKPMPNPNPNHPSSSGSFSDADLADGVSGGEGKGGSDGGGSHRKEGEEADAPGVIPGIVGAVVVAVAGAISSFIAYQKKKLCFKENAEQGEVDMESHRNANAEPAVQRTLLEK
# T2: SUMO-CD99 fusion protein (SUMO fused with the extracellular domain of CD99, residues 23-122) (UniProt P14209 23-122, biotin on the AviTag (BirA, in vitro))
# T2 chain: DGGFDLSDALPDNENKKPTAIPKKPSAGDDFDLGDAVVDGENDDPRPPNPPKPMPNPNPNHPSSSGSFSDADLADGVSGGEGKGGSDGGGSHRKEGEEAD
# Legend:
# [1] = target: T1, CD99 endogenously expressed on cells …; experiment: cell binding; apparent KD; nM molecule; avid
# [2] = target: T1, CD99 endogenously expressed on cells …; experiment: cell binding; apparent KD; nM Fv; avid
# [3] = target: T1, CD99 endogenously expressed on cells …; experiment: cell binding; apparent KD; nM Fv
# [4] = target: T1, CD99 endogenously expressed on cells …; experiment: cell binding; apparent KD; nM molecule
# [5] = target: T2, SUMO-CD99 fusion protein (SUMO fused …); experiment: bead-based titration (flow cytometry); apparent KD, nM Fv, scFv-Fc
Binder,Kd [1] [nM],Kd [2] [nM],also measured
10A1 IgG-E345R (antibody) heavy: QVQLQQSGPVLVKPSQTLSLTCAISGDSISSDTTAWSWIRRSPSRGLEWLGWTYYRSKWFNYYAVSVKGRVTINPDTSKNQFSLQLSSVTPEDTAVYYCARGNGNGGMDVWGQGTTVTVSSASTKGPSVFPLAPSSKSTSGGTAALGCLVKDYFPEPVTVSWNSGALTSGVHTFPAVLQSSGLYSLSSVVTVPSSSLGTQTYICNVNHKPSNTKVDKKVEPKSCDKTHTCPPCPAPEAAGGPSVFLFPPKPKDTLMISRTPEVTCVVVDVSHEDPEVKFNWYVDGVEVHNAKTKPREEQYNSTYRVVSVLTVLHQDWLNGKEYKCKVSNKALGAPIEKTISKAKGQPRRPQVYTLPPSREEMTKNQVSLTCLVKGFYPSDIAVEWESNGQPENNYKTTPPVLDSDGSFFLYSKLTVDKSRWQQGNVFSCSVMHEALHNHYTQKSLSLSPGK light: SYVLTQPASASVSPGQTARITCSGDALPKQYAYWYQQKPGQAPVLVIFKDSERPSGVPERFSGSSSGTTVTLTISGAQAEDEADYYCQSVDNSGFYQVFGGGTQLTVLRTVAAPSVFIFPPSDEQLKSGTASVVCLLNNFYPREAKVQWKVDNALQSGNSQESVTEQDSKDSTYSLSSTLTLSKADYEKHKVYACEVTHQGLSSPVTKSFNRGEC,8,16,
10A1 IgG-HCscFv (antibody) heavy: QVQLQQSGPVLVKPSQTLSLTCAISGDSISSDTTAWSWIRRSPSRGLEWLGWTYYRSKWFNYYAVSVKGRVTINPDTSKNQFSLQLSSVTPEDTAVYYCARGNGNGGMDVWGQGTTVTVSSASTKGPSVFPLAPSSKSTSGGTAALGCLVKDYFPEPVTVSWNSGALTSGVHTFPAVLQSSGLYSLSSVVTVPSSSLGTQTYICNVNHKPSNTKVDKKVEPKSCDKTHTCPPCPAPEAAGGPSVFLFPPKPKDTLMISRTPEVTCVVVDVSHEDPEVKFNWYVDGVEVHNAKTKPREEQYNSTYRVVSVLTVLHQDWLNGKEYKCKVSNKALGAPIEKTISKAKGQPREPQVYTLPPSREEMTKNQVSLTCLVKGFYPSDIAVEWESNGQPENNYKTTPPVLDSDGSFFLYSKLTVDKSRWQQGNVFSCSVMHEALHNHYTQKSLSLSPGKSSGSSGSSSSSGSSSQVQLQQSGPVLVKPSQTLSLTCAISGDSISSDTTAWSWIRRSPSRGLEWLGWTYYRSKWFNYYAVSVKGRVTINPDTSKNQFSLQLSSVTPEDTAVYYCARGNGNGGMDVWGQGTTVTVSSGSSSSSSGSSGSSSSSYVLTQPASASVSPGQTARITCSGDALPKQYAYWYQQKPGQAPVLVIFKDSERPSGVPERFSGSSSGTTVTLTISGAQAEDEADYYCQSVDNSGFYQVFGGGTQLTVL light: SYVLTQPASASVSPGQTARITCSGDALPKQYAYWYQQKPGQAPVLVIFKDSERPSGVPERFSGSSSGTTVTLTISGAQAEDEADYYCQSVDNSGFYQVFGGGTQLTVLRTVAAPSVFIFPPSDEQLKSGTASVVCLLNNFYPREAKVQWKVDNALQSGNSQESVTEQDSKDSTYSLSSTLTLSKADYEKHKVYACEVTHQGLSSPVTKSFNRGEC,1.3,5.3,
"10A1 Fab (Fab, V domains shown) VH: QVQLQQSGPVLVKPSQTLSLTCAISGDSISSDTTAWSWIRRSPSRGLEWLGWTYYRSKWFNYYAVSVKGRVTINPDTSKNQFSLQLSSVTPEDTAVYYCARGNGNGGMDVWGQGTTVTVSS VL: SYVLTQPASASVSPGQTARITCSGDALPKQYAYWYQQKPGQAPVLVIFKDSERPSGVPERFSGSSSGTTVTLTISGAQAEDEADYYCQSVDNSGFYQVFGGGTQLTVL",,,Kd [3]: > 250 nM; Kd [4]: > 250 nM
clone 22 in the scFv-Fc format (Fc fusion) QVQLQQSGPGLVKPSQTLSLTCAISGDSVSSNSAAWNWIRQSPSRGLEWLGRTYYRSKWYNDYAVSVKSRITINPDTSKNQFSLQLNSVTPEDTAVYYCARGSYGSGLVWGQGTTVTVSSGSASAPTGILGSGGGGSGGGGSGGGGSNFMLTQPHSVSESPGKTVTISCTGSSGSIASNYVQWYQQRPGSAPTTVIYEDDQRPSGVPDRFSGSLDTSSNSASLTISGLRPEDEADYYCQSYDNKDNVVFGGGTKVTVLSGSSSSLEGCKPCICTVPEVSSVFIFPPKPKDVLTITLTPKVTCVVVDISKDDPEVQFSWFVDDVEVHTAQTQPREEQFNSTFRSVSELPIMHQDWLNGKEFKCRVNSAAFPAPIEKTISKTKGRPKAPQVYTIPPPKEQMAKDKVSLTCMITDFFPEDITVEWQWNGQPAENYKNTQPIMDTDGSYFVYSKLNVQKSNWEAGNTFTCSVLHEGLHNHHTEKSLSHSPGKGGGGLNDIFEAQKIEWHESRHHHHHH,,,Kd [5]: 18 nM
clone 10 in the scFv-Fc format (Fc fusion) QVQLQQSGPVLVKPSQTLSLTCAISGDSVSSDTTAWSWIRQSPSRGLEWLGWTYYRSKWFNYYAVSVKSRVTINPDTSKNQFSLQLSSVTPEDTAVYYCARGNGNGGMDVWGQGTTVTVSSGILGSGGGGSGGGGSGGGGSSYVLTQPPSVSVSPGQTARITCSGDALPKQYAYWYQQKPGQAPVLVIFKDSERPSGIPERFSGSSSGTTVTLTISGVQAEDEADYYCQSADNSGFYQVFGGGTQLTVLSGSSSSLEGCKPCICTVPEVSSVFIFPPKPKDVLTITLTPKVTCVVVDISKDDPEVQFSWFVDDVEVHTAQTQPREEQFNSTFRSVSELPIMHQDWLNGKEFKCRVNSAAFPAPIEKTISKTKGRPKAPQVYTIPPPKEQMAKDKVSLTCMITDFFPEDITVEWQWNGQPAENYKNTQPIMDTDGSYFVYSKLNVQKSNWEAGNTFTCSVLHEGLHNHHTEKSLSHSPGKGGGGLNDIFEAQKIEWHESRHHHHHH,,,Kd [5]: 14 nM

# The next lines start with results.
Kd [1] [nM],Kd [2] [nM],Binder,also measured
0.5,6.2,10A1 IgG-RGY (antibody) heavy: QVQLQQSGPVLVKPSQTLSLTCAISGDSISSDTTAWSWIRRSPSRGLEWLGWTYYRSKWFNYYAVSVKGRVTINPDTSKNQFSLQLSSVTPEDTAVYYCARGNGNGGMDVWGQGTTVTVSSASTKGPSVFPLAPSSKSTSGGTAALGCLVKDYFPEPVTVSWNSGALTSGVHTFPAVLQSSGLYSLSSVVTVPSSSLGTQTYICNVNHKPSNTKVDKKVEPKSCDKTHTCPPCPAPEAAGGPSVFLFPPKPKDTLMISRTPEVTCVVVDVSHEDPEVKFNWYVDGVEVHNAKTKPREEQYNSTYRVVSVLTVLHQDWLNGKEYKCKVSNKALGAPIEKTISKAKGQPRRPQVYTLPPSREEMTKNQVSLTCLVKGFYPSDIAVEWESNGQPENNYKTTPPVLDSDGSFFLYSKLTVDKSRWQQGNVFSCSVMHGALHNHYTQKYLSLSPGK light: SYVLTQPASASVSPGQTARITCSGDALPKQYAYWYQQKPGQAPVLVIFKDSERPSGVPERFSGSSSGTTVTLTISGAQAEDEADYYCQSVDNSGFYQVFGGGTQLTVLRTVAAPSVFIFPPSDEQLKSGTASVVCLLNNFYPREAKVQWKVDNALQSGNSQESVTEQDSKDSTYSLSSTLTLSKADYEKHKVYACEVTHQGLSSPVTKSFNRGEC,
2.7,5.4,10A1 IgG-LALA (antibody) heavy: QVQLQQSGPVLVKPSQTLSLTCAISGDSISSDTTAWSWIRRSPSRGLEWLGWTYYRSKWFNYYAVSVKGRVTINPDTSKNQFSLQLSSVTPEDTAVYYCARGNGNGGMDVWGQGTTVTVSSASTKGPSVFPLAPSSKSTSGGTAALGCLVKDYFPEPVTVSWNSGALTSGVHTFPAVLQSSGLYSLSSVVTVPSSSLGTQTYICNVNHKPSNTKVDKKVEPKSCDKTHTCPPCPAPEAAGGPSVFLFPPKPKDTLMISRTPEVTCVVVDVSHEDPEVKFNWYVDGVEVHNAKTKPREEQYNSTYRVVSVLTVLHQDWLNGKEYKCKVSNKALGAPIEKTISKAKGQPREPQVYTLPPSREEMTKNQVSLTCLVKGFYPSDIAVEWESNGQPENNYKTTPPVLDSDGSFFLYSKLTVDKSRWQQGNVFSCSVMHEALHNHYTQKSLSLSPGK light: SYVLTQPASASVSPGQTARITCSGDALPKQYAYWYQQKPGQAPVLVIFKDSERPSGVPERFSGSSSGTTVTLTISGAQAEDEADYYCQSVDNSGFYQVFGGGTQLTVLRTVAAPSVFIFPPSDEQLKSGTASVVCLLNNFYPREAKVQWKVDNALQSGNSQESVTEQDSKDSTYSLSSTLTLSKADYEKHKVYACEVTHQGLSSPVTKSFNRGEC,
